The values below come from paper PMC9499683, “Isolation and Characterization of Homologically Expressed Methanol Dehydrogenase from Methylorubrum extorquens AM1 for the Development of Bioelectrocatalytical Systems” (International Journal of Molecular Sciences, 2022).

Broadly, the Km is the substrate concentration at which the rate is half of its maximum. In general, Vmax refers to the top rate of the reaction or transport when substrate is in excess.

What all share (assay): purified protein
Common to all, as to details: pH 9.0, 30 °C, free enzyme, ammonium needed as activator

Substrate in series [1]: CCO
Substrate in series [2]: CCCCCO
It is filed as biochemical, Methylorubrum extorquens.

Substrate in series [3]: CCCCO
It is filed as biochemical, Methylorubrum extorquens.

Substrate in series [4]: CO
It is filed as biochemical, Methylorubrum extorquens.

B1: MDH-His6-tag (recombinant PQQ-dependent methanol dehydrogenase, PQQ-MDH) (Methylorubrum extorquens AM1) (protein)
chain: NDKLVELSKSDDNWVMPGKNYDSNNFSDLKQINKGNVKQLRPAWTFSTGLLNGHEGAPLVVDGKMYIHTSFPNNTFALGLDDPGTILWQDKPKQNPAARAVACCDLVNRGLAYWPGDGKTPALILKTQLDGNVAALNAETGETVWKVENSDIKVGSTLTIAPYVVKDKVIIGSSGAELGVRGYLTAYDVKTGEQVWRAYATGPDKDLLLASDFNIKNPHYGQKGLGTGTWEGDAWKIGGGTNWGWYAYDPGTNLIYFGTGNPAPWNETMRPGDNKWTMTIFGRDADTGEAKFGYQKTPHDEWDYAGVNVMMLSEQKDKDGKARKLLTHPDRNGIVYTLDRTDGALVSANKLDDTVNVFKSVDLKTGQPVRDPEYGTRMDHLAKDICPSAMGYHNQGHDSYDPKRELFFMGINHICMDWEPFMLPYRAGQFFVGATLNMYPGPKGDRQNYEGLGQIKAYNAITGDYKWEKMERFAVWGGTMATAGDLVFYGTLDGYLKARDSDTGDLLWKFKIPSGAIGYPMTYTHKGTQYVAIYYGVGGWPGVGLVFDLADPTAGLGAVGAFKKLANYTQMGGGVVVFSLDGKGPYDDPNVGEWKSAAK
notes: full-length mxaF ORF with leader peptide and C-terminal His6 tag, expressed from pCM160 in M. extorquens AM1; small subunit co-purified from host; Ni-NTA; PQQ and Ca2+; with Methanol dehydrogenase [cytochrome c] subunit 2
For the protein B1, the Km in “purified protein [1]” was 610 ± 60 µM; in “purified protein [2]” it was 1400 ± 100 µM; in the series “purified protein [3]”, 1900 ± 200 µM; in the series “purified protein [4]” it was 360 ± 70 µM. The Vmax in the series “purified protein [1]” turned out to be 2.9 µmol/min/mg; in the series “purified protein [2]” it was 2.8 µmol/min/mg; in “purified protein [3]”, 2.7 µmol/min/mg; in “purified protein [4]” it was 4.2 µmol/min/mg.
